The record followed here is the supplement of paper PMC9170038.

This series has as its system MS2 coat protein. Description: apparent KD of MS2 coat protein; designed switch direction (-1 OFF switch, 1 ON switch): 1; higher = weaker reporter binding. Summed up: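 For each design, the apparent KD is the median over clusters of curves fitted to normalised cluster fluorescence. Clusters held RNA switches with common flanks, transcribed on Illumina chips by stalled E. coli RNA polymerase. These were titrated with SNAP-549-labelled MS2 coat protein, doubling from 0.7 or 1.5 nM to 3 µM, without input, with 200 uM small-molecule ligand, or with an oligonucleotide input.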

Where [1] appears, read: Eterna round: R95, input ligand: FMN 200 uM.
Setting [2] is: Eterna round: R95, input ligand: microRNA oligo, concentration not stated.
The mark [3] stands for this setting: Eterna round: R95, input ligand: none.
The mark [4] stands for this setting: input ligand: microRNA oligo, concentration not stated.

As for “CACAAUCUAUCUGAGGAUAUCAUGAAAAAAACAUGAGGAUCACCCAUGUGCAGGAAAACUGCAUAUGAGAAGGCAGAUAGAUUGU [salish99_SS2_r3_015] (puzzle: Same State 2)”, the “apparent KD of MS2 coat protein” value worked out at 0.0283 µM under setting [1], 0.72 µM under setting [2] and 0.913 µM under setting [3].
Regarding “CACAUGAGGAUCACCCAUGUGAGGCGGCAAUAAAACCGCGCACAGGAUAUAGCGCUAAGAAUGCGCUAGAAGGGUGAUUAGAAC [Esenla] (Eterna round: R96, puzzle: Same State NG 3)”, the “apparent KD of MS2 coat protein” value (input ligand: FMN 200 uM) was found to be 0.746 µM, the “apparent KD of MS2 coat protein” value under setting [4] came to 0.0104 µM and the “apparent KD of MS2 coat protein” value (input ligand: none) came out at 0.0393 µM.
In the case of “CAGCGCUGUCGAGAGGAUAUGCGGUGAUGGACAUGAGGAUCACCCAUGUUAGCGACAGCAUCACGGCAGAAGGCUCUACCGCCUG [Soteed Omei mod 43] (puzzle: Same State 2)”, the “apparent KD of MS2 coat protein” value by setting is: under setting [1], 0.0179 µM; under setting [2], 0.0224 µM; under setting [3], 0.0323 µM.
Turning to “CAGUACUGUCGAGAGGAUAUGCGGUGAUGGACAUGAGGAUCACCCAUGUUAGCGACAGCAUCACGGCAGAAGGCUCUACUGCUGC [Soteed Omei mod 33] (puzzle: Same State 2)”, the “apparent KD of MS2 coat protein” value under setting [2] turned out to be 0.0394 µM.
For “CAGUGCUGUCGAGAGGAUAUGCGGUGAUGGACAUGAGGAUCACCCAUGUUAGCGACAGCGUUACGGCAGAAGGCUCUACCCACUG [Soteed Omei mod 47] (puzzle: Same State 2)”, the “apparent KD of MS2 coat protein” value under setting [1] worked out at 0.0625 µM, the “apparent KD of MS2 coat protein” value under setting [2] amounted to 0.0287 µM and the “apparent KD of MS2 coat protein” value under setting [3] came to 0.0427 µM.
Take “CAUCCCUCCACAGGAUAUCGACCGAUAAAACGGCGAGAAGGGUGGCCACAUGAGGAUCACCCAUGUGGAAUUGGAUGAGCUACA [Enlaed] (Eterna round: R96, puzzle: Same State NG 1)”: the “apparent KD of MS2 coat protein” value runs as follows: (input ligand: FMN 200 uM) 0.0787 µM; under setting [4], 0.0666 µM; (input ligand: none) 0.126 µM.
In the case of “CAUCUCCCUUUUACAUGAGGAUCACCCAUGUUUUCAUAUUGAGAGGAUAUCGUAUUUGGAAACAUCGAGAAGGCUCAUUUGUAU [JR_SSNG3_Sub073] (Eterna round: R96, puzzle: Same State NG 3)”, the “apparent KD of MS2 coat protein” value under setting [4] amounted to 0.345 µM.
Turning to “CCAUAACAGUGAGGAUAUUGUUGCGAUAAGUGACGAGAAGGCAUUCAUGUGAAAUAAACAUACAUGAGGAUCACCCAUGUUGUA [Omei SS(NG)1 Bv2] (Eterna round: R96, puzzle: Same State NG 1)”, the “apparent KD of MS2 coat protein” value was 0.0179 µM (input ligand: FMN 200 uM), 0.0198 µM under setting [4] and 0.0267 µM (input ligand: none).
As to “CCAUGGUAACAUGAGGAUCACCCAUGUACAAGCUUUUUGCUCGUUUUAUUUAUUAUUAUUAUUAUUAUUAUUAUUAA [Nishu_Seq1] (puzzle: Sensor for hsa-mir-208a version 2)”, the “apparent KD of MS2 coat protein” value runs as follows: under setting [1], 0.0335 µM; under setting [2], 0.105 µM; under setting [3], 0.0866 µM.
“CCCUCAUGCAGGCUAACACGCUUGUUUUAACAUGAGGAUCACCCAUGUACGUCGCCGUUUCGUGCGGGACGCGCAGA [Anuscear] (Eterna round: R96, puzzle: Sensor for hsa-mir-208a)”: the “apparent KD of MS2 coat protein” value (input ligand: FMN 200 uM) was determined as 0.363 µM, the “apparent KD of MS2 coat protein” value under setting [4] was determined as 0.229 µM and the “apparent KD of MS2 coat protein” value (input ligand: none) is 0.169 µM.
For “CCCUUCGGCACAUGAGGAUCACCCAUGUUUUAGUUGAAGAGGUAGGAUAUGGCUGGGAGCGGAAGCCAGAAGGACCAAGUGAGU [Lareonge] (Eterna round: R96, puzzle: Same State NG 3)” the same measures were 0.00776 µM, 0.00841 µM and 0.0126 µM.
For “CCGAAAUAUGGAGGAUAUGGAGCCUUAUUGGCUCCAGAAGGUCAAAACAUGAGGAUCACCCAUGUAUCGGCGGUCAAUAGACCG [Eli NG1ss - 73] (Eterna round: R96, puzzle: Same State NG 1)”, the “apparent KD of MS2 coat protein” value (input ligand: FMN 200 uM) was determined as 0.123 µM, the “apparent KD of MS2 coat protein” value under setting [4] came to 0.0817 µM and the “apparent KD of MS2 coat protein” value (input ligand: none) turned out to be 0.171 µM.
Consider “CCGAUAAAUGGAGGAUAUGGAGCCUUAUUGGCUCCAGAAGGCUAAUAACAUGAGGAUCACCCAUGUCGGCGGUCUAAUGACCGA [Eli NG1ss - 51] (Eterna round: R96, puzzle: Same State NG 1)”, for which the “apparent KD of MS2 coat protein” value under setting [4] was determined as 0.0464 µM.
On the same count and under the same terms, the result for “CCGCUAAAUGGAGGAUAUGGAGCCUUAUUGGCUCCAGAAGGUCAAAACAUGAGGAUCACCCAUGUGCGGCGGUCUAAUGACCGA [Eli NG1ss - 48] (Eterna round: R96, puzzle: Same State NG 1)” reads 0.122 µM.
Turning to “CCGGAUAAUGGAGGAUAUGGAGCCUUAUUGGCUCCAGAAGGCUAACAUGAGGAUCACCCAUGUAAUCCGGCGGUCAAUAGACCG [Eli NG1ss - 65] (Eterna round: R96, puzzle: Same State NG 1)”, the “apparent KD of MS2 coat protein” value was determined as 0.012 µM (input ligand: FMN 200 uM), 0.015 µM under setting [4] and 0.0255 µM (input ligand: none).
Take “CCGGUUUAUGGAGGAUAUGGAGCCUUAUUGGCUCCAGAAGGCUAAUACAUGAGGAUCACCCAUGUUCCGGCGGUCAAUAGACCG [Eli NG1ss - 58] (Eterna round: R96, puzzle: Same State NG 1)”: the “apparent KD of MS2 coat protein” value is, setting by setting: (input ligand: FMN 200 uM) 0.0239 µM; under setting [4], 0.0778 µM; (input ligand: none) 0.126 µM.
For “CCGUUCAAUAAACAUGAGGAUCACCCAUGUAAUAAUAAGGGUGAGGAUAUGCAUCUGAAACAGGUGCAGAAGGCAUAAGAGCGG [JL SSNG3 3.90] (Eterna round: R96, puzzle: Same State NG 3)” the same measures were 0.487 µM, 0.289 µM and 0.585 µM.
For “CGACCAAUUGUUUAAUAAACAUGAGGAUCACCCAUGUUUCGUGAGGAUAUCUAGGGUGAAGCACGGGAGAAGGCACUACGGUCA [Eternabot solution 21] (Eterna round: R96, puzzle: Same State NG 3)” the same measures were 0.142 µM, 0.12 µM and 0.134 µM.
As for “CGCCCGAAUGAAGGAUAUGGUACAACACGAUGAUCAGAAGGUUAUUAAAGUGGGUGAUGCCGACAUGAGGAUCACCCAUGUUGG [Eternabot solution 40] (Eterna round: R96, puzzle: Same State NG 1)”, the “apparent KD of MS2 coat protein” value worked out at 0.0531 µM (input ligand: FMN 200 uM), 0.06 µM under setting [4] and 0.0669 µM (input ligand: none).
Take “CGGCGCUGUCGAGAGGAUAUGCGGUGAUGGACAUGAGGAUCACCCAUGUUAGCGAUAGCAUUACGGUAGAAGGCUCUACAGCUGC [Soteed Omei mod 4] (puzzle: Same State 2)”: the “apparent KD of MS2 coat protein” value under setting [2] is 0.0279 µM.
With “CGGGUACAUGAGGAUCACCCAUGUAGAAGAGAUGCAGGAUAUGUGGGAAAAGGGAAUGUAACAGAAGGGCAAGGAG [JR_SS!_Sub017] (puzzle: Same State 1)”, the “apparent KD of MS2 coat protein” value runs as follows: under setting [1], 0.0474 µM; under setting [2], 0.0561 µM; under setting [3], 0.0941 µM.
On to “CGGUGAGAGACAGGAUAUCGAGCCUAACGAGGCCGAGAAGGGUCGCCCGAAGCGACCGACAUGAGGAUCACCCAUGUAGAAAGA [Eternabot solution 21] (Eterna round: R96, puzzle: Same State NG 1)”, for which the “apparent KD of MS2 coat protein” value came out at 0.0342 µM (input ligand: FMN 200 uM), 0.03 µM under setting [4] and 0.0404 µM (input ligand: none).
As for “CGUCCGGCCUGAGCUGGUCGGAAGCAUGUACAUGAGGAUCACCCAUGUUCAUGUGCAGGCUUUUUGCUCGUCUUGUG [salish99_mir208a_modof_jandersonlee_004] (puzzle: Sensor for hsa-mir-208a)”, the “apparent KD of MS2 coat protein” value runs as follows: under setting [1], 0.0398 µM; under setting [2], 0.0131 µM; under setting [3], 0.0396 µM.
“CGUCCGGCCUGUGCUGGCCGGUUGCUUGUACAUGAGGAUCACCCAUGUUCUUGUGCUGGCUUUUUGCUCGUCUUGUG [salish99_mir208a_019] (puzzle: Sensor for hsa-mir-208a)”: the “apparent KD of MS2 coat protein” value under setting [1] was found to be 0.0315 µM, the “apparent KD of MS2 coat protein” value under setting [2] stood at 0.0192 µM and the “apparent KD of MS2 coat protein” value under setting [3] is 0.0378 µM.
Regarding “CGUUGGACAUCCAGCAAGACAUGAGGAUCACCCAUGUAGGCGCAGGAUAUGCGGGUUCGGUGCUCGCAGAAGGGUGAAGAAAAC [Araerar] (Eterna round: R96, puzzle: Same State NG 3)”, the “apparent KD of MS2 coat protein” value by setting is: (input ligand: FMN 200 uM) 0.0355 µM; under setting [4], 0.0213 µM; (input ligand: none) 0.0304 µM.
For “CUAUCUACAGGUUGCAGUGCUCGUCUUAUACAUGAGGAUCACCCAUGUUAUAGCCCGGUGCUUGCGCUGGGCUGAUU [JL ViennaUCT Tearor mod 2] (Eterna round: R96, puzzle: Sensor for hsa-mir-208a)” the same measures were 0.0409 µM, 0.0164 µM and 0.0411 µM.
Consider “CUAUCUACAGGUUGCAGUGCUCGUCUUAUACAUGAGGAUCACCCAUGUUAUAGCCCGGUGCUUGCGCUGGGCUGAUU [JL ViennaUCT Tearor mod 2] (puzzle: Sensor for hsa-mir-208a)”, for which the “apparent KD of MS2 coat protein” value runs as follows: under setting [1], 0.0364 µM; under setting [2], 0.0164 µM; under setting [3], 0.043 µM.
As to “CUCAACAACACAGGAUAUCCAGGGAAAAGACCUGGAGAAGGGUGACCAACAUGAGGAUCACCCAUGUGACAGCCAGGCUGUCUG [Esisiszaon] (Eterna round: R96, puzzle: Same State NG 1)”, the “apparent KD of MS2 coat protein” value came to 0.164 µM (input ligand: FMN 200 uM), 0.0844 µM under setting [4] and 0.0477 µM (input ligand: none).
